Assay results from IntAct's records for PubMed 30518913.

B1: UbiA prenyltransferase domain-containing protein 1 (Homo sapiens), Q9Y5Z9 (parent)
chain: MAASQVLGEKINILSGETVKAGDRDPLGNDCPEQDRLPQRSWRQKCASYVLALRPWSFSASLTPVALGSALAYRSHGVLDPRLLVGCAVAVLAVHGAGNLVNTYYDFSKGIDHKKSDDRTLVDRILEPQDVVRFGVFLYTLGCVCAACLYYLSPLKLEHLALIYFGGLSGSFLYTGGIGFKYVALGDLIILITFGPLAVMFAYAIQVGSLAIFPLVYAIPLALSTEAILHSNNTRDMESDREAGIVTLAILIGPTFSYILYNTLLFLPYLVFSILATHCTISLALPLLTIPMAFSLERQFRSQAFNKLPQRTAKLNLLLGLFYVFGIILAPAGSLPKI

Variants of: B1
Conditions: with rash_human HRAS

| Variant | effect of a mutation on the interaction |
| --- | --- |
| R54A;P55A;W56A;S57A | disrupting interaction |
| N102S | disrupting interaction |
